Measurements: US20020065398A1 (CENTRO DE INMUNOLOGIA MOLECULAR, published 2002)
Changes are numbered by the printed parent chain. Each block holds one binder with its values, some of them ahead of it.

Columns and labels:
[1] = target: T1, human epidermal growth factor receptor (human, UniProt P00533 25-1210); test: RRA, 125I-EGF competition on human placenta microsomal fraction
T1 construct: whole, on cells; also called EGF-R; EGF receptor

[2] = target: T1, human epidermal growth factor receptor; test: RRA, concentrated supernatants of transfected NSO cells

binding result [1]: no binding
B1: first version of humanized R3 antibody (R3-huVH(a) with R3-huVK) (antibody, human IgG1, V domains shown)
VH: QVQLQQSGAEVKKPGSSVKVSCKASGYTFTNYYIYWVRQAPGQGLEWIGGINPTSGGSNFNEKFKTRVTITVDESTNTAYMELSSLRSEDTAFYFCARQGLWFDSDGRGFDFWGQGSTVTVSS
VL: DIQMTQSPSSLSASVGDRVTITCRSSQNIVHSNGNTYLDWYQQTPGKAPKLLIYKVSNRFSGVPSRFSGSGSGTDFTFTISSLQPEDIATYYCFQYSHVPWTFGQGTKLQITR
notes: R3 CDRs grafted on human Eu (VH) and REI (VK) frameworks; human IgG1 / kappa constant regions; also called humanized (1) R3; version 1

binding result [1]: no binding
B2: reshaped R3VH-K66A67 with huVKR3 (antibody, V domains shown)
VH: B1 VH with R67K, V68A
VL: DIQMTQSPSSLSASVGDRVTITCRSSQNIVHSNGNTYLDWYQQTPGKAPKLLIYKVSNRFSGVPSRFSGSGSGTDFTFTISSLQPEDIATYYCFQYSHVPWTFGQGTKLQIT
notes: Human IgG1 / kappa; also called 66 and 67 changes

binding result [2]: no binding
B3: hybrid humanized R3VH/murine R3VK (antibody, V domains shown)
VH: B1 VH
VL: DVLMTQIPLSLPVSLGDGASISCRSSQNIVHSNGNTYLDWYLQKPGQSPNLLIYKVSNRFSGVPDRFRGSGSGTDFTLKISRVEAEDLGVYYCFQYSHVPWTFGGGTKLEIK
notes: Human gamma-1 and kappa constant regions; tested as concentrated supernatant of transfected NSO cells; The hybrid was made before the further VH versions, so its humanized VH is read as the first version
